20 molecules from patent publication US20250277020A1 (Boehringer Ingelheim, published 2025) can be followed below.

As usually defined, the Kd is the free concentration of one partner at which half of the binding sites on the other are occupied at equilibrium, for simple one-to-one binding. Higher therefore signals weaker binding.

In the experiment the target is T1, Full-length human CTGF (human, UniProt P29279 27-349).
T1 construct: Corresponds to NCBI NP_001892.1 with the signal peptide omitted; purchased from R&D Systems; also called hCTGF full length; full length CTGF
T1 sequence: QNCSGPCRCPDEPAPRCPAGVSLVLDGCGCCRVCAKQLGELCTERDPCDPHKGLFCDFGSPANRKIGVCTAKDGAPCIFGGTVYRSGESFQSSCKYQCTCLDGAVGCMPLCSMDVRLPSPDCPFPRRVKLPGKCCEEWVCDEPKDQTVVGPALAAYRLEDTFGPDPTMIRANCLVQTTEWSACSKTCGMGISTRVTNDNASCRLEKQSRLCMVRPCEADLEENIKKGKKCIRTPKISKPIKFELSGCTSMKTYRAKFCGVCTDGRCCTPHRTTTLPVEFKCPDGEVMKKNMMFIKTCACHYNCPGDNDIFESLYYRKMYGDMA
Nature of the experiment: SPR, full length CTGF.

B1: A33 (antibody, human IgG1, kappa, L234A L235A, V domains shown)
VH: EVQLVESGGGLVQPGGSLRLSCAASGFTFSDYYMAWVRQAPGKGLEWVANINYEGSRTDLLESLKSRFTISRDNAKNSVYLQMNSLRAEDTAVYYCARDTSRGSYFDVWGAGTTVTVSS
VL: VVMTQTPLSLSVSLGDQASISCKSSQSIVHYNENTYLEWYLQKPGQSPQLLIYKVSSRFSGVPDRFSGSGSGTDFTLKISRVEAEDLGVYYCFQGSHFPLTFGQGTKLEIKR
For the molecule B1, the binding result is given as “no binding”.

B2: A19 (antibody, human IgG1, kappa, L234A L235A, V domains shown)
VH: EVQLVESGGGLVQPGGSLRLSCAASGFTFSDYYMAWVRQAPGKGLEWVANINYEGSRTDLLASLKSRFTISRDNAKNSVYLQMNSLRAEDTAVYYCARDTSRGSYFDVWGAGTTVTVSS
VL: VVMTQTPLSLSVSLGDQASISCKSSQSIVHYNGKTYLEWYLQKPGQSPQLLIYKVSSRFSGVPDRFSGSGSGTDFTLKISRVEAEDLGVYYCFQGSHFPLTFGQGTKLEIKR
In the case of B2, the affinity, expressed as Kd, was 0.17 nM.

B3: A11 (antibody, human IgG1, kappa, L234A L235A)
light: VVMTQTPLSLSVSLGDQASISCKSSQSIVHYNEKTYLEWYLQKPGQSPQLLIYKVSSRASGVPDRFSGSGSGTDFTLKISRVEAEDLGVYYCFQGSHFPLTFGQGTKLEIKRTVAAPSVFIFPPSDEQLKSGTASVVCLLNNFYPREAKVQWKVDNALQSGNSQESVTEQDSKDSTYSLSSTLTLSKADYEKHKVYACEVTHQGLSSPVTKSFNRGEC
heavy: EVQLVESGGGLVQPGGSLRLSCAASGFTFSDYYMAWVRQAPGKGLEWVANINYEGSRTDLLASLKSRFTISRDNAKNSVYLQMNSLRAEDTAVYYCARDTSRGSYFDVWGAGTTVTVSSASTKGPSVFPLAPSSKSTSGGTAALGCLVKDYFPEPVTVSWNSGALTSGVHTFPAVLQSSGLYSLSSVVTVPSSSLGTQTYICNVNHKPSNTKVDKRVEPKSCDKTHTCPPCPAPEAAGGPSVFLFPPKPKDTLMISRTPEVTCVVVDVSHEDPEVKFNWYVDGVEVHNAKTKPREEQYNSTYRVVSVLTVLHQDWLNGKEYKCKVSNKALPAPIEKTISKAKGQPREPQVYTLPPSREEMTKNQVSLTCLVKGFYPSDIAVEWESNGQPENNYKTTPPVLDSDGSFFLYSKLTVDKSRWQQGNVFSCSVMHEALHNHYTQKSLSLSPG
In turn, B3 yielded a Kd of 0.17 nM.

B4: A7 (antibody, human IgG1, kappa, L234A L235A, V domains shown)
VH: EVQLVESGGGLVQPGGSLRLSCAASGFTFSDYYMAWVRQAPGKGLEWVANINYDGSRTDLLESLKSRFTISRDNAKNSVYLQMNSLRAEDTAVYYCARDTSRGSYFDVWGAGTTVTVSS
VL: VVMTQTPLSLSVSLGDQASISCKSSQSIVHYNEKTYLEWYLQKPGQSPQLLIYKVSSRFSGVPDRFSGSGSGTDFTLKISRVEAEDLGVYYCFQGSHFPLTFGQGTKLEIKR
For the molecule B4, the affinity, expressed as Kd, was 0.33 nM.

B5: A6 (antibody, human IgG1, kappa, L234A L235A, V domains shown)
VH: EVQLVESGGGLVQPGGSLRLSCAASGFTFSDYYMAWVRQAPGKGLEWVANINYEGSRTDLLDSLKSRFTISRDNAKNSVYLQMNSLRAEDTAVYYCARDTSRGSYFDVWGAGTTVTVSS
VL: VVMTQTPLSLSVSLGDQASISCKSSQSIVHYNEKTYLEWYLQKPGQSPQLLIYKVSSRFSGVPDRFSGSGSGTDFTLKISRVEAEDLGVYYCFQGSHFPLTFGQGTKLEIKR
B5: binding was characterised by a dissociation constant (Kd) of 0.32 nM.

B6: A2 (antibody, human IgG1, kappa, L234A L235A, V domains shown)
VH: EVQLVESGGGLVQPGGSLRLSCAASGFTFSDYYMAWVRQAPGKGLEWVANINYYGSRTDLLESLKSRFTISRDNAKNSVYLQMNSLRAEDTAVYYCARDTSRGSYFDVWGAGTTVTVSS
VL: VVMTQTPLSLSVSLGDQASISCKSSQSIVHYNEKTYLEWYLQKPGQSPQLLIYKVSSRFSGVPDRFSGSGSGTDFTLKISRVEAEDLGVYYCFQGSHFPLTFGQGTKLEIKR
Molecule B6 displayed an equilibrium dissociation constant (Kd) of 0.25 nM. The Kd values of the last two molecules are within 1.5-fold of each other.

B7: A18 (antibody, human IgG1, kappa, L234A L235A, V domains shown)
VH: EVQLVESGGGLVQPGGSLRLSCAASGFTFSDYYMAWVRQAPGKGLEWVANINYYGSRTDLLESLKSRFTISRDNAKNSVYLQMNSLRAEDTAVYYCARDTSRGSYFDVWGAGTTVTVSS
VL: VVMTQTPLSLSVSLGDQASISCKSSQSIVHYNGKTYLEWYLQKPGQSPQLLIYKVSSRFSGVPDRFSGSGSGTDFTLKISRVEAEDLGVYYCFQGSHFPLTFGQGTKLEIKR
Turning to B7, the Kd was 0.19 nM.

B8: A5 (antibody, human IgG1, kappa, L234A L235A)
light: VVMTQTPLSLSVSLGDQASISCKSSQSIVHYNEKTYLEWYLQKPGQSPQLLIYKVSSRFSGVPDRFSGSGSGTDFTLKISRVEAEDLGVYYCFQGSHFPLTFGQGTKLEIKRTVAAPSVFIFPPSDEQLKSGTASVVCLLNNFYPREAKVQWKVDNALQSGNSQESVTEQDSKDSTYSLSSTLTLSKADYEKHKVYACEVTHQGLSSPVTKSFNRGEC
heavy: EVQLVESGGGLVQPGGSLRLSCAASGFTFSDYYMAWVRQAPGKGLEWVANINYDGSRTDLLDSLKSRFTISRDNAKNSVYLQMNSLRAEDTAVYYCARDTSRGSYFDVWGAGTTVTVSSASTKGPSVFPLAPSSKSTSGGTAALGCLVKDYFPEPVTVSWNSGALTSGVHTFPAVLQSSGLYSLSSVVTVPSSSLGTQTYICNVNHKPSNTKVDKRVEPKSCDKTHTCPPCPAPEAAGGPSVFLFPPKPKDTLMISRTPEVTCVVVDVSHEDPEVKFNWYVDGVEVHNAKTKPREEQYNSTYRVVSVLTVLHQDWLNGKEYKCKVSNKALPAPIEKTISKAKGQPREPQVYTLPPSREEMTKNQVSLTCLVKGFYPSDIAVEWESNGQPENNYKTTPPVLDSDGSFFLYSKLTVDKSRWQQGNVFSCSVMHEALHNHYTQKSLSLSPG
B8 gave a Kd of 0.32 nM.

B9: A10 (antibody, human IgG1, kappa, L234A L235A)
light: VVMTQTPLSLSVSLGDQASISCKSSQSIVHYNEKTYLEWYLQKPGQSPQLLIYKVSSRASGVPDRFSGSGSGTDFTLKISRVEAEDLGVYYCFQGSHFPLTFGQGTKLEIKRTVAAPSVFIFPPSDEQLKSGTASVVCLLNNFYPREAKVQWKVDNALQSGNSQESVTEQDSKDSTYSLSSTLTLSKADYEKHKVYACEVTHQGLSSPVTKSFNRGEC
heavy: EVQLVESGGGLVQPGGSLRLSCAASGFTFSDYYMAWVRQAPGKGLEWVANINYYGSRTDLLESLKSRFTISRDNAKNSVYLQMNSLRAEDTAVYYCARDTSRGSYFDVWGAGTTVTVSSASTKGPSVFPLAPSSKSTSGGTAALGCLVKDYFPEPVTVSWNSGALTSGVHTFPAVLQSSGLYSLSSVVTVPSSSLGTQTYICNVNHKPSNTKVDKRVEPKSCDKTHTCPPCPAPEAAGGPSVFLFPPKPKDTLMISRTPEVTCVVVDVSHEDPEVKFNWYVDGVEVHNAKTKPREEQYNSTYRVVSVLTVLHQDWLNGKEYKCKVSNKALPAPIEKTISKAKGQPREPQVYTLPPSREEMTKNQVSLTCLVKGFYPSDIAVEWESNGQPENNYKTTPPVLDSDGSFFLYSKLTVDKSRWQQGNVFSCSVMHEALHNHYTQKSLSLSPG
B9 registered a Kd of 0.19 nM.

B10: A1 (antibody, human IgG1, kappa, L234A L235A, V domains shown)
VH: EVQLVESGGGLVQPGGSLRLSCAASGFTFSDYYMAWVRQAPGKGLEWVANINYEGSRTDLLESLKSRFTISRDNAKNSVYLQMNSLRAEDTAVYYCARDTSRGSYFDVWGAGTTVTVSS
VL: VVMTQTPLSLSVSLGDQASISCKSSQSIVHYNEKTYLEWYLQKPGQSPQLLIYKVSSRFSGVPDRFSGSGSGTDFTLKISRVEAEDLGVYYCFQGSHFPLTFGQGTKLEIKR
B10: the Kd was determined as 0.29 nM.

B11: A8 (antibody, human IgG1, kappa, L234A L235A)
light: VVMTQTPLSLSVSLGDQASISCKSSQSIVHYNEKTYLEWYLQKPGQSPQLLIYKVSSRFSGVPDRFSGSGSGTDFTLKISRVEAEDLGVYYCFQGSHFPLTFGQGTKLEIKRTVAAPSVFIFPPSDEQLKSGTASVVCLLNNFYPREAKVQWKVDNALQSGNSQESVTEQDSKDSTYSLSSTLTLSKADYEKHKVYACEVTHQGLSSPVTKSFNRGEC
heavy: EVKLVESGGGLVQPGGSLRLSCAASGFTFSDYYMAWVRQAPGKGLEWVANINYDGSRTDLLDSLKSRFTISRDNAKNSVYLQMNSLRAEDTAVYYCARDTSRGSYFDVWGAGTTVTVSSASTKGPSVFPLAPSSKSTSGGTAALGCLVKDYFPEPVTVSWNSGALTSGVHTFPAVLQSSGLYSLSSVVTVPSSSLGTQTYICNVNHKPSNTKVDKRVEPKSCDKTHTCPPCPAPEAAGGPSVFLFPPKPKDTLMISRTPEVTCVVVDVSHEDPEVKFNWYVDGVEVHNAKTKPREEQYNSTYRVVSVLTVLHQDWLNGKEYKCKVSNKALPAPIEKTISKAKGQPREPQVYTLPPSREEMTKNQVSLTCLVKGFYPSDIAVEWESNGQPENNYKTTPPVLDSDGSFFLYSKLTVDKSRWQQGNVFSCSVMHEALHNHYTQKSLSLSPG
On to B11, for which binding was characterised by a dissociation constant (Kd) of 0.34 nM.

B12: A20 (antibody, human IgG1, kappa, L234A L235A, V domains shown)
VH: EVQLVESGGGLVQPGGSLRLSCAASGFTFSDYYMAWVRQAPGKGLEWVANINYYGSRTDLLASLKSRFTISRDNAKNSVYLQMNSLRAEDTAVYYCARDTSRGSYFDVWGAGTTVTVSS
VL: VVMTQTPLSLSVSLGDQASISCKSSQSIVHYNGKTYLEWYLQKPGQSPQLLIYKVSSRFSGVPDRFSGSGSGTDFTLKISRVEAEDLGVYYCFQGSHFPLTFGQGTKLEIKR
In turn, B12 had a Kd of 0.18 nM.

B13: A14 (antibody, human IgG1, kappa, L234A L235A)
light: VVMTQTPLSLSVSLGDQASISCKSSQSIVHYNEKTYLEWYLQKPGQSPQLLIYKVSSRASGVPDRFSGSGSGTDFTLKISRVEAEDLGVYYCFQGSHFPLTFGQGTKLEIKRTVAAPSVFIFPPSDEQLKSGTASVVCLLNNFYPREAKVQWKVDNALQSGNSQESVTEQDSKDSTYSLSSTLTLSKADYEKHKVYACEVTHQGLSSPVTKSFNRGEC
heavy: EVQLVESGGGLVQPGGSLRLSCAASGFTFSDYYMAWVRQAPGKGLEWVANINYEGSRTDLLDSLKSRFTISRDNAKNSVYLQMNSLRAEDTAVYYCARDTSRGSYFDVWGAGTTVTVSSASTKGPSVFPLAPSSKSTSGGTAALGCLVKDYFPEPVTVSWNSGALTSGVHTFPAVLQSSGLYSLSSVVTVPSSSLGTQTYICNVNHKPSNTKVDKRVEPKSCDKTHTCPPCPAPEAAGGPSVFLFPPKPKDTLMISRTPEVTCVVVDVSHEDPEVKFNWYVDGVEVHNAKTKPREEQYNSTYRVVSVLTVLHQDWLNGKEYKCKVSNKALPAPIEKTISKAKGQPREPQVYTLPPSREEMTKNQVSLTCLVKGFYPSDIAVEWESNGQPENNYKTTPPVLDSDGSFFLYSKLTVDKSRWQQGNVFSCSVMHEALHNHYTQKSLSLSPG
B13 showed a Kd of 0.22 nM.

B14: A15 (antibody, human IgG1, kappa, L234A L235A)
light: VVMTQTPLSLSVSLGDQASISCKSSQSIVHYNEKTYLEWYLQKPGQSPQLLIYKVSSRASGVPDRFSGSGSGTDFTLKISRVEAEDLGVYYCFQGSHFPLTFGQGTKLEIKRTVAAPSVFIFPPSDEQLKSGTASVVCLLNNFYPREAKVQWKVDNALQSGNSQESVTEQDSKDSTYSLSSTLTLSKADYEKHKVYACEVTHQGLSSPVTKSFNRGEC
heavy: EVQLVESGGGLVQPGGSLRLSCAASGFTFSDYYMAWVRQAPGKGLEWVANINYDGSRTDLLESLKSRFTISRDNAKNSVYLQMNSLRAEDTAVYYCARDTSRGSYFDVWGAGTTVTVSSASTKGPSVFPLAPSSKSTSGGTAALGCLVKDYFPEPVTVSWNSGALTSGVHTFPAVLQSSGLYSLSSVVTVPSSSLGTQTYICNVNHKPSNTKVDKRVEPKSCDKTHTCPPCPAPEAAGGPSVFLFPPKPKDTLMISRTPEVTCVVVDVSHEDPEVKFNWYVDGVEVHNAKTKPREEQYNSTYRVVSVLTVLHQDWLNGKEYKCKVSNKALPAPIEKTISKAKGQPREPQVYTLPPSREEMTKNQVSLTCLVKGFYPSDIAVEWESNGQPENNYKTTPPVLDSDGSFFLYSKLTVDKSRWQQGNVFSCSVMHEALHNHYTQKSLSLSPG
For B14, the Kd is 0.26 nM.

B15: A4 (antibody, human IgG1, kappa, L234A L235A, V domains shown)
VH: EVQLVESGGGLVQPGGSLRLSCAASGFTFSDYYMAWVRQAPGKGLEWVANINYYGSRTDLLASLKSRFTISRDNAKNSVYLQMNSLRAEDTAVYYCARDTSRGSYFDVWGAGTTVTVSS
VL: VVMTQTPLSLSVSLGDQASISCKSSQSIVHYNEKTYLEWYLQKPGQSPQLLIYKVSSRFSGVPDRFSGSGSGTDFTLKISRVEAEDLGVYYCFQGSHFPLTFGQGTKLEIKR
Molecule B15 yielded a Kd of 0.22 nM.

B16: A3 (antibody, human IgG1, kappa, L234A L235A, V domains shown)
VH: EVQLVESGGGLVQPGGSLRLSCAASGFTFSDYYMAWVRQAPGKGLEWVANINYEGSRTDLLASLKSRFTISRDNAKNSVYLQMNSLRAEDTAVYYCARDTSRGSYFDVWGAGTTVTVSS
VL: VVMTQTPLSLSVSLGDQASISCKSSQSIVHYNEKTYLEWYLQKPGQSPQLLIYKVSSRFSGVPDRFSGSGSGTDFTLKISRVEAEDLGVYYCFQGSHFPLTFGQGTKLEIKR
Turning to B16, the affinity, expressed as Kd, was 0.23 nM.

B17: A9 (antibody, human IgG1, kappa, L234A L235A)
light: VVMTQTPLSLSVSLGDQASISCKSSQSIVHYNEKTYLEWYLQKPGQSPQLLIYKVSSRASGVPDRFSGSGSGTDFTLKISRVEAEDLGVYYCFQGSHFPLTFGQGTKLEIKRTVAAPSVFIFPPSDEQLKSGTASVVCLLNNFYPREAKVQWKVDNALQSGNSQESVTEQDSKDSTYSLSSTLTLSKADYEKHKVYACEVTHQGLSSPVTKSFNRGEC
heavy: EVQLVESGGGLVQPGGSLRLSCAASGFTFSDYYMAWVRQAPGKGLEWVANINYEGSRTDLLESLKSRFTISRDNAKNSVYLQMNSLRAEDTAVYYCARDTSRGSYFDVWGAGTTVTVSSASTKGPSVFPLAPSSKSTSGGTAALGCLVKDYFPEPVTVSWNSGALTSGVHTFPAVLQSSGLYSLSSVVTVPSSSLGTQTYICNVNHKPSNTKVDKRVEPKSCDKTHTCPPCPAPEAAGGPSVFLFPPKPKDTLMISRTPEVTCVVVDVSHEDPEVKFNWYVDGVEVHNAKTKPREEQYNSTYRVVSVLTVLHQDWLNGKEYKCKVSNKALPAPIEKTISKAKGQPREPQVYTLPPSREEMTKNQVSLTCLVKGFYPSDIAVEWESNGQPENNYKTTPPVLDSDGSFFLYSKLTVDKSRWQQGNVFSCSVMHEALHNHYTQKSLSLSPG
As for B17, the Kd was determined as 0.21 nM.

B18: A12 (antibody, human IgG1, kappa, L234A L235A)
light: VVMTQTPLSLSVSLGDQASISCKSSQSIVHYNEKTYLEWYLQKPGQSPQLLIYKVSSRASGVPDRFSGSGSGTDFTLKISRVEAEDLGVYYCFQGSHFPLTFGQGTKLEIKRTVAAPSVFIFPPSDEQLKSGTASVVCLLNNFYPREAKVQWKVDNALQSGNSQESVTEQDSKDSTYSLSSTLTLSKADYEKHKVYACEVTHQGLSSPVTKSFNRGEC
heavy: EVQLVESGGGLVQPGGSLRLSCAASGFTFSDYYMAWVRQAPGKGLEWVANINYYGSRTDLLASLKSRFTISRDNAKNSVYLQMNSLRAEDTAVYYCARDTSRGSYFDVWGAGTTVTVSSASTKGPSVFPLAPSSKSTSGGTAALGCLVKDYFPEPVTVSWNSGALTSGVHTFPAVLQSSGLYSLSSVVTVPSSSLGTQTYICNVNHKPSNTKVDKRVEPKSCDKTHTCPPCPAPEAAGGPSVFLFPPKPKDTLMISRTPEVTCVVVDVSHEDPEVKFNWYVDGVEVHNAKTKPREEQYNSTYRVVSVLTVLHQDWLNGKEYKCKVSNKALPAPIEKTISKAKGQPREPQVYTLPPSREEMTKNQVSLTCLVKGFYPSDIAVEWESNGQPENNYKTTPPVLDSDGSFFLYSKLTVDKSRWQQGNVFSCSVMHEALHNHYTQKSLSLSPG
For B18, the Kd turned out to be 0.17 nM.

B19: A17 (antibody, human IgG1, kappa, L234A L235A, V domains shown)
VH: EVQLVESGGGLVQPGGSLRLSCAASGFTFSDYYMAWVRQAPGKGLEWVANINYEGSRTDLLESLKSRFTISRDNAKNSVYLQMNSLRAEDTAVYYCARDTSRGSYFDVWGAGTTVTVSS
VL: VVMTQTPLSLSVSLGDQASISCKSSQSIVHYNGKTYLEWYLQKPGQSPQLLIYKVSSRFSGVPDRFSGSGSGTDFTLKISRVEAEDLGVYYCFQGSHFPLTFGQGTKLEIKR
Regarding B19, binding was put at a Kd of 0.2 nM.

B20: A16 (antibody, human IgG1, kappa, L234A L235A)
light: VVMTQTPLSLSVSLGDQASISCKSSQSIVHYNEKTYLEWYLQKPGQSPQLLIYKVSSRASGVPDRFSGSGSGTDFTLKISRVEAEDLGVYYCFQGSHFPLTFGQGTKLEIKRTVAAPSVFIFPPSDEQLKSGTASVVCLLNNFYPREAKVQWKVDNALQSGNSQESVTEQDSKDSTYSLSSTLTLSKADYEKHKVYACEVTHQGLSSPVTKSFNRGEC
heavy: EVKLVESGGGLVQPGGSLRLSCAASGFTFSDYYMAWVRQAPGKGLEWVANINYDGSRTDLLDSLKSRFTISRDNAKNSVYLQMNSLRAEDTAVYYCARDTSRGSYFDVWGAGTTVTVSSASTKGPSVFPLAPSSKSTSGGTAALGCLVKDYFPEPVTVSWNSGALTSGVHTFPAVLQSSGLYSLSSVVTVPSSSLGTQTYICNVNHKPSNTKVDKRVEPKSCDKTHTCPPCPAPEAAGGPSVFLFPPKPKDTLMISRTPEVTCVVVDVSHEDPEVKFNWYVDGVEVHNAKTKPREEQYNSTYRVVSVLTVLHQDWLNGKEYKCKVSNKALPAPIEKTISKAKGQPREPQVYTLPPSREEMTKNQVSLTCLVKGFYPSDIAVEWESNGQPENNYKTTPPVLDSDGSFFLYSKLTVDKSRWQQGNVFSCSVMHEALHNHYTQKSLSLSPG
B20 registered a Kd of 0.24 nM.
